In test [1] the target is T1, extracellular domain (ECD) of human GRAIL (RNF128) (human, UniProt Q8TEB7 39-207, limits assumed).
T1 construct: extracellular domain; also called GRAIL ECD
T1 sequence (looked up): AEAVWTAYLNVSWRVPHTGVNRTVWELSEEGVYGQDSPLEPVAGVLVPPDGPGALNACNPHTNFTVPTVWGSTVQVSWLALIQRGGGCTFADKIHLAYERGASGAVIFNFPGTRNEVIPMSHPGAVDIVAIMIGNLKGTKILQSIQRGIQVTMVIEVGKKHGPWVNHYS
The experiment in a line: SPR (Biacore), titration at equilibrium, nanobody on ECD.

In test [2] the target is T2, extracellular domain (ECD) of human GOLIATH (RNF130) (human, UniProt Q86XS8 28-194).
T2 construct: extracellular domain; also called GOLIATH ECD
T2 sequence (looked up): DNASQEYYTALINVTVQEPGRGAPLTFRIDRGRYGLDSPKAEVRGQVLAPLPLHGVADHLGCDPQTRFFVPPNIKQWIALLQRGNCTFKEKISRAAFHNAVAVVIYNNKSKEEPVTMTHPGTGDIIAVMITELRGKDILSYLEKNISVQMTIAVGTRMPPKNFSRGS
The test is described as follows: SPR (Biacore), titrations at equilibrium, Biacore Analysis Software; row GRAIL-E1, column GOLIATH (hRNF130). For orientation: SPR reads the build-up and loss of mass on a sensor chip optically.

Test [3] addresses T3, extracellular domain (ECD) of human GODZILLA (RNF167) (human, UniProt Q9H6Y7 25-173, limits assumed).
T3 construct: extracellular domain; also called GODZILLA ECD
The experiment in a line: SPR (Biacore), titrations at equilibrium, Biacore Analysis Software; row GRAIL-E1, column GODZILLA (hRNF167).

Test [4] concerns the target T2, extracellular domain (ECD) of human …. The experiment in a line: SPR (Biacore), titrations at equilibrium, Biacore Analysis Software; row GRAIL-E2, column GOLIATH (hRNF130).
Test [5] concerns the target T3, extracellular domain (ECD) of human …. The experiment in a line: SPR (Biacore), titrations at equilibrium, Biacore Analysis Software; row GRAIL-E2, column GODZILLA (hRNF167).
Test [6] has as its target T4, extracellular domain (ECD) of human or mouse ZNRF3 (human or mouse).
T4 construct: extracellular domain; also called ZNRF3 ECD
The test is described as follows: SPR (Biacore), nanobody on ECD.

For test [7], the target named is T2, extracellular domain (ECD) of human …. The test is described as follows: SPR (Biacore), titration at equilibrium, nanobody on ECD.
Test [8] concerns the target T3, extracellular domain (ECD) of human …. The experiment in a line: SPR (Biacore), ligand hRNF167 ECD (GODZILLA), analyte GOLIATH-F8 [CONT. 3].
Test [9] deals with T1, extracellular domain (ECD) of human …. The experiment in a line: SPR (Biacore), titrations at equilibrium, Biacore Analysis Software; column ECD GRAIL (hRNF128).
The target in test [10] is T3, extracellular domain (ECD) of human …. The experiment in a line: SPR (Biacore), titrations at equilibrium, Biacore Analysis Software; row GOLIATH-D1, column GODZILLA (hRNF167).
The target of test [11] is T1, extracellular domain (ECD) of human …. The test is described as follows: SPR (Biacore), ligand hRNF128 ECD (GRAIL), analyte GOLIATH-F2 [CONT. 2].
Test [12] deals with T3, extracellular domain (ECD) of human …. The test is described as follows: SPR (Biacore), ligand hRNF167 ECD (GODZILLA), analyte GOLIATH-F2 [CONT. 2].
The target of a further test is T5, hZNRF3 ECD.
T5 construct: The human half of m19, which leaves the species open; also called extracellular domain of human ZNRF3
T5 chain: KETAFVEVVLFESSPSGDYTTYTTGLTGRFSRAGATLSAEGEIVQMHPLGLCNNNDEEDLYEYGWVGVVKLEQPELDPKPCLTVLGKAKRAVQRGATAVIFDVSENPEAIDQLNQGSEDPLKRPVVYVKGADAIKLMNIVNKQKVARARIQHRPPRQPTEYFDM
The test is described as follows: SPR (Biacore), ligand hZNRF3 ECD, nanobody as analyte.

The target of the next test is T6, mZNRF3 ECD.
T6 construct: The mouse half of m19, which leaves the species open; also called extracellular domain of mouse ZNRF3
T6 chain: T5 chain with Y22H, T36M, R153L
The experiment in a line: SPR (Biacore), ligand mZNRF3 ECD, nanobody as analyte.

The target in test [13] is T7, extracellular domain (ECD) of human or mouse RNF43 (human or mouse).
T7 construct: extracellular domain; also called RNF43 ECD
The experiment in a line: SPR (Biacore), nanobody on ECD.

In the next test the target is T8, hRNF43 ECD.
T8 construct: The human half of m18, which leaves the species open; also called extracellular domain of human RNF43
T8 chain: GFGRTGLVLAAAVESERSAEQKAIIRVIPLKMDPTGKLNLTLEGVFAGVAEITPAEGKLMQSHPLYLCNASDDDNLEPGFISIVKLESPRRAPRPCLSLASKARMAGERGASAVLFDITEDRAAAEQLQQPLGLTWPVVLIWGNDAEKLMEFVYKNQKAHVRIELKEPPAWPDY
The experiment in a line: SPR (Biacore), ligand hRNF43 ECD, nanobody as analyte.

The target of a further test is T9, mRNF43 ECD.
T9 construct: The mouse half of m18, which leaves the species open; also called extracellular domain of mouse RNF43
T9 chain: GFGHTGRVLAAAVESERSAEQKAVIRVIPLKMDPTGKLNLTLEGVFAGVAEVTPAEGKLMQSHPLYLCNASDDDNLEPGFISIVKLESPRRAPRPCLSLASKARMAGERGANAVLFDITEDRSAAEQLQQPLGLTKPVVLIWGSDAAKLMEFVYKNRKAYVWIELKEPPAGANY
The experiment in a line: SPR (Biacore), ligand mRNF43 ECD, nanobody as analyte.

Test [14] addresses T1, extracellular domain (ECD) of human …. The experiment in a line: SPR (Biacore), titrations at equilibrium, Biacore Analysis Software; row GOLIATH-A1, column GRAIL (hRNF128).
Test [15] has as its target T3, extracellular domain (ECD) of human …. The experiment in a line: SPR (Biacore), titrations at equilibrium, Biacore Analysis Software; row GOLIATH-A1, column GODZILLA (hRNF167).
The target of test [16] is T2, extracellular domain (ECD) of human …. The experiment in a line: SPR (Biacore), ligand hRNF130 ECD (GOLIATH), analyte GRAIL-D1.
In test [17] the target is T3, extracellular domain (ECD) of human …. The experiment in a line: SPR (Biacore), titrations at equilibrium, Biacore Analysis Software; row GRAIL-D1, column GODZILLA (hRNF167).

Positions count from the first letter of the chain named.

The term Kd denotes the concentration at which binding is half-saturated. High values mean a looser complex, low ones a tighter complex.

B1: GRAIL (RNF128) VHH of SEQ ID NO: 2 (VHH)
VHH: QVQLQESGGGLVQAGGSLRLSCAASGNISVQLDMGWYRQAPGKEREFVAAINQGTTTYYADSVKGRFTISRDNAKNTVYLQMNSLKPEDTAVYYCAVYLYDIWNHPYWGQGTQVTVSS
notes: also called E1; GRAIL-E1
Turning to B1, the Kd in test [1] came out at 7.92 nM. Further, the binding result in [2] and in test [3] was “no binding” throughout.

B2: GRAIL (RNF128) VHH of SEQ ID NO: 3 (VHH)
VHH: QVQLQESGGGLVQAGGSLRLSCAASGSISGGKGMGWYRQAPGKEREFVAAIGSGAITYYADSVKGRFTISRDNAKNTVYLQMNSLKPEDTAVYYCAVYTTALDEYPYWGQGTQVTVSS
notes: also called E2; GRAIL-E2
In test [1], B2 gave a Kd of 13.5 nM. Moreover, the binding result in test [4] and in test [5] was “no binding” each time.

B3: ZNRF3 VHH of SEQ ID NO: 13 (VHH)
VHH: QVQLQESGGGLVQAGGSLRLSCAASGTIFYTLFMGWYRQAPGKEREFVAGIGRGGITYYADSVKGRFTISRDNAKNTVYLQMNSLKPEDTAVYYCAVWYDFLHSDSQAYSYWGQGTQVTVSS
notes: also called ZNRF3 nanobody
In turn, B3 returned a Kd in test [6] of 18.1 nM.

B4: GOLIATH (RNF130) VHH of SEQ ID NO: 8 (VHH)
VHH: QVQLQESGGGLVQAGGSLRLSCAASGTISFIGYMGWYRQAPGKERELVASIASGTSTYYADSVKGRFTISRDNAKNTVYLQMNSLKPEDTAVYYCAATQYIQDAHRYWGQGTQVTVSS
notes: also called GOLIATH nanobody
On to B4, for which the values for the dissociation constant (Kd) in [7] and in test [9] were 130 nM and 70.2 nM, respectively. Also, the binding result in test [8] is listed as “no binding (tested: 2000 (unit not printed))”.

B5: GOLIATH (RNF130) VHH of SEQ ID NO: 6 (VHH)
VHH: B4 VHH with A104V
notes: also called D1; GOLIATH-D1
B5 showed a Kd in [7] of 6.38 nM. Further, the binding result in test [10] is “no binding”.

B6: GOLIATH (RNF130) VHH of SEQ ID NO: 7 (VHH)
VHH: B4 VHH with F30V, Q99H
notes: also called GOLIATH nanobody
Consider B6, for which the binding result in [11] and in [12] was “no binding (tested: 4000 (unit not printed))” throughout.

B7: GRAIL (RNF128) VHH of SEQ ID NO: 4 (VHH)
VHH: QVQLQESGGGLVQAGGSLRLSCAASGTISYYYAMGWYRQAPGKEREFVAAIDLGTSTYYADSVKGRFTISRDNAKNTVYLQMNSLKPEDTAVYYCAAWSDYVTELPYWGQGTQVTVSS
notes: also called GRAIL nanobody
In [1], B7 showed a Kd of 148 nM.

B8: ZNRF3 VHH of SEQ ID NO: 14 (VHH)
VHH: QVQLQESGGGLVQAGGSLRLSCAASGTISYAHIMGWYRQAPGKERELVAGISQGSITNYADSVKGRFTISRDNAKNTVYLQMNSLKPEDTAVYYCAVISYDYIKSVPFRYWGQGTQVTVSS
notes: also called ZNRF3 nanobody
For B8, the Kd in test [6] is 0.7 nM. For the same molecule, the binding result in the test with hZNRF3 ECD and with mZNRF3 ECD was “binds” in each case.

B9: RNF43 VHH of SEQ ID NO: 11 (VHH)
VHH: QVQLQESGGGLVQAGGSLRLSCAASGTIFGLSDMGWYRQAPGKEREFVAAIAGGTITYYADSVKGRFTISRDNAKNTVYLQMNSLKPEDTAVYYCAAYKYDERYHSYWGQGTQVTVSS
notes: also called RNF43 nanobody
B9: in test [13], the Kd stood at 163 nM. Also, the binding result with hRNF43 ECD and in the test with mRNF43 ECD was “binds” in each case.

B10: GOLIATH (RNF130) VHH of SEQ ID NO: 5 (VHH)
VHH: QVQLQESGGGLVQAGGSLRLSCAASGYISGYYVMGWYRQAPGKEREFVASISYGASTYYADSVKGRFTISRDNAKNTVYLQMNSLKPEDTAVYYCAVDFDSNYAHTYWGQGTQVTVSS
notes: also called A1; GOLIATH-A1
In test [7], B10 gave a Kd of 8.18 nM. Moreover, the binding result in test [14] and in test [15] was “no binding” each time.

B11: GRAIL (RNF128) VHH of SEQ ID NO: 1 (VHH)
VHH: QVQLQESGGGLVQAGGSLRLSCAASGYIFYGVHMGWYRQAPGKEREFVAAIDLGTTTYYADSVKGRFTISRDNAKNTVYLQMNSLKPEDTAVYYCAVYFDGLTNLPYWGQGTQVTVSS
notes: Purified nanobody; also called GRAIL nanobody
Molecule B11 showed a Kd in [1] of 8.99 nM. For the same molecule, the binding result in test [16] was “no binding (tested: 500 (unit not printed))”; in test [17] it was “no binding”.

B12: RNF43 VHH of SEQ ID NO: 12 (VHH)
VHH: QVQLQESGGGLVQAGGSLRLSCAASGSIFWKPVMGWYRQAPGKEREFVAAITSGTNTYYADSVKGRFTISRDNAKNTVYLQMNSLKPEDTAVYYCAVDDYDVVEYPYWGQGTQVTVSS
notes: also called RNF43 nanobody
Consider B12, for which binding in test [13] was put at a Kd of 41.5 nM.

For the origin of these results see patent US20240239891A1 (Stanford University, published 2024).
